Results published in patent EP4534554A1 (Corregene Biotechnology Co., Ltd., dated 2025).
Where a chain is given by its changes, count along the chain named. Read-outs that look alike come from different tables or passages of the source. One block for each binder: values may come before it.

Tests used:
[1] = target: MAGE-A1 target antigen peptide … presented by HLA-A*02:01 on cells (human); assay: cell-based or functional assay; design: EC50 Enhancement Factor: unit not given beside the values
[2] = target: T1, MAGE-A1 peptide on HLA-A*02:01 (human); assay: JKR9 reporter + peptide-loaded T2, 16 h; full-length, on cells
T1 peptide: KVLEYVIKV

[3] = target: MAGE-A1 target antigen peptide … presented by HLA-A*02:01 on cells (human); assay: cell-based or functional assay
[4] = target: T1, MAGE-A1 peptide on HLA-A*02:01; assay: JKR9 reporter + peptide-loaded T2, 16 h; full-length, on cells
[5] = target: MAGE-A1 Dextramer (human); assay: MAGE-A1 Dextramer gradient staining (MFI) of cells expressing the TCR, flow cytometry
[6] = target: MAGE-A1 Dextramer (human); assay: KD-SPR estimated from Dextramer staining MFI by the linear formula of Figure 6; not measured by SPR
[7] = target: T1, MAGE-A1 peptide on HLA-A*02:01; assay: MAGE-A1 Dextramer gradient on transduced JKR9; unit inferred; full-length, on cells
[8] = target: T1, MAGE-A1 peptide on HLA-A*02:01; assay: KD-SPR estimated from Dextramer MFI by the formula calibrated on gp100 TCRs, not measured; unit inferred; full-length, on cells
[9] = target: T2, MAGE-A1 target antigen peptide … presented by HLA-A*02:01 on cells (human); assay: cell-based or functional assay; remark: listed apart in the source
[10] = target: T2, MAGE-A1 target antigen peptide … …; assay: cell-based or functional assay; remark: listed apart in the source

EC50 Enhancement Factor [1]: 14 | EC50 Value (M), JKR9 reporter activation by peptide-loaded T2 cells [1]: 1.17e-06 M | EC50 of peptide [2]: 1170 nM
B1: ht27M1003 (TCR, V domains shown)
Valpha: GEDVEQSLFLSVREGDSSVINCTYTDSSSTYLYWYKQEPGAGLQLLTYIFSNMDMKQDQRLTVLLNKKDKHLSLRIADTQTGDSAIYFCAGSGGGTDKLIFGTGTRLQVFP
Vbeta: GAVVSQHPSWVICKSGTSVKIECRSLDFQATTMFWYRQFPKQSLMLMATSNEGSKATYEQGVEKDKFLINHASLTLSTLTVTSAHPEDSSFYICSAREPGSGPYEQYFGPGTRLTVT

EC50 Enhancement Factor [1]: 261 | EC50 Value (M), JKR9 reporter activation by peptide-loaded T2 cells [1]: 6.4e-08 M | EC50 of peptide [2]: 64 nM
B2: ht27M1363 (TCR, V domains shown)
Valpha: B1 Valpha with S51N, N52T, M53Q
Vbeta: B1 Vbeta with S101Q

EC50 Value (M), JKR9 reporter activation by peptide-loaded T2 cells [3]: 3.52e-08 M | EC50 of peptide [4]: 35.1 nM | EC50 [5]: 0.0852 nM | Kd [6]: 0.0222 nM | EC50 of Dextramer staining [7]: 0.0852 nM | Kd [8]: ~0.0222 nM
B3: A1A2-M01-625 (TCR, V domains shown)
Valpha: B1 Valpha with S29M, S51A, N52F, M53E, D54S
Vbeta: B1 Vbeta with Q29E, S50T, N51D, E52Y, S101Q, Y104W

EC50 Enhancement Factor [1]: 82.8 | EC50 Value (M), JKR9 reporter activation by peptide-loaded T2 cells [1]: 2.02e-07 M | EC50 of peptide [2]: 202 nM
B4: ht27M1436 (TCR, V domains shown)
Valpha: B1 Valpha with I49T, S51W, N52F
Vbeta: B1 Vbeta with S101Q

EC50 Value (M), JKR9 reporter activation by peptide-loaded T2 cells [3]: 2.62e-08 M | EC50 of peptide [4]: 26.2 nM | EC50 [5]: 0.0961 nM | Kd [6]: 0.0338 nM | EC50 of Dextramer staining [7]: 0.0961 nM | Kd [8]: ~0.0338 nM
B5: A1A2-M01-613 (TCR, V domains shown)
Valpha: B1 Valpha with S29L, N52F
Vbeta: B1 Vbeta with S50T, N51D, E52Y, S101Q, Y104W

EC50 Value (M), JKR9 reporter activation by peptide-loaded T2 cells [3]: 2.26e-08 M | EC50 of peptide [4]: 22.6 nM
B6: A1A2-M01-626 (TCR, V domains shown)
Valpha: B1 Valpha with T25P, S27M, S28F, S51A, N52F, D54Q
Vbeta: B1 Vbeta with Q29P, A30I, T31E, T32R, S50T, N51D, E52Y, S101Q, Y104F

EC50 Enhancement Factor [1]: 1650 | EC50 Value (M), JKR9 reporter activation by peptide-loaded T2 cells [1]: 1.01e-08 M | EC50 of peptide [2]: 10.1 nM
B7: ht27M1418 (TCR, V domains shown)
Valpha: B1 Valpha with I49G, F50T, S51W, N52L
Vbeta: B1 Vbeta with S101Q

EC50 Value (M), JKR9 reporter activation by peptide-loaded T2 cells [3]: 3.57e-08 M | EC50 of peptide [4]: 35.7 nM | EC50 [5]: 0.121 nM | Kd [6]: 0.0747 nM | EC50 of Dextramer staining [7]: 0.121 nM | Kd [8]: ~0.0747 nM
B8: A1A2-M01-621 (TCR, V domains shown)
Valpha: B1 Valpha with S28E, S29F, S51A, N52F, M53E, D54S
Vbeta: B1 Vbeta with Q29E, S50T, N51D, E52Y, S101Q, Y104W

EC50 Value (M), JKR9 reporter activation by peptide-loaded T2 cells [3]: 3.06e-08 M | EC50 of peptide [4]: 30.6 nM | EC50 [5]: 0.187 nM | Kd [6]: 0.337 nM | EC50 of Dextramer staining [7]: 0.187 nM | Kd [8]: ~0.337 nM
B9: A1A2-M01-623 (TCR, V domains shown)
Valpha: B1 Valpha with S29Q, S51I, N52F, M53Q, D54A
Vbeta: B1 Vbeta with Q29E, S50T, N51D, E52Y, S101Q, Y104W

EC50 Value (M), JKR9 reporter activation by peptide-loaded T2 cells [3]: 2.3e-08 M | EC50 of peptide [4]: 23 nM | EC50 [5]: 0.0475 nM | Kd [6]: 0.00294 nM | EC50 of Dextramer staining [7]: 0.0475 nM | Kd [8]: ~0.00294 nM
B10: A1A2-M01-612 (TCR, V domains shown)
Valpha: B1 Valpha with T25V, S27P, S28Y, N52F
Vbeta: B1 Vbeta with Q29E, G100W, S101D, G102P, P103W

EC50 Value (M), JKR9 reporter activation by peptide-loaded T2 cells [3]: 2.94e-08 M | EC50 of peptide [4]: 29.4 nM | EC50 [5]: 0.163 nM | Kd [6]: 0.208 nM | EC50 of Dextramer staining [7]: 0.163 nM | Kd [8]: ~0.208 nM
B11: A1A2-M01-614 (TCR, V domains shown)
Valpha: B1 Valpha with T25S, S27M, S28L, S51I, N52F, M53Q, D54A
Vbeta: B1 Vbeta with Q29E, S50T, N51D, E52Y, S101Q, Y104W

EC50 Enhancement Factor [1]: 419 | EC50 Value (M), JKR9 reporter activation by peptide-loaded T2 cells [1]: 3.99e-08 M | EC50 of peptide [2]: 39.9 nM
B12: ht27M1362 (TCR, V domains shown)
Valpha: B1 Valpha with S51I, N52F, M53Q, D54Y
Vbeta: B1 Vbeta with S101Q

EC50 Value (M), JKR9 reporter activation by peptide-loaded T2 cells [3]: 2.5e-08 M | EC50 of peptide [4]: 25 nM | EC50 [5]: 0.212 nM | Kd [6]: 0.524 nM | EC50 of Dextramer staining [7]: 0.212 nM | Kd [8]: ~0.524 nM
B13: A1A2-M01-620 (TCR, V domains shown)
Valpha: B1 Valpha with S29Q
Vbeta: B1 Vbeta with Q29E, S50T, N51D, E52Y, S101Q, G102A, P103W, Y104S, E105D

EC50 Value (M), JKR9 reporter activation by peptide-loaded T2 cells [3]: 3.23e-08 M | EC50 of peptide [4]: 32.3 nM | EC50 [5]: 0.0808 nM | Kd [6]: 0.0186 nM | EC50 of Dextramer staining [7]: 0.0808 nM | Kd [8]: ~0.0186 nM
B14: A1A2-M01-616 (TCR, V domains shown)
Valpha: B1 Valpha with S29Q, S51A, N52F, D54Q
Vbeta: B1 Vbeta with Q29E, S50T, N51D, E52Y, S101Q, Y104W

EC50 Value (M), JKR9 reporter activation by peptide-loaded T2 cells [3]: 2.61e-08 M | EC50 of peptide [4]: 26.1 nM | EC50 [5]: 0.103 nM | Kd [6]: 0.0432 nM | EC50 of Dextramer staining [7]: 0.103 nM | Kd [8]: ~0.0432 nM
B15: A1A2-M01-617 (TCR, V domains shown)
Valpha: B1 Valpha with T25P, S27M, S28F, S51A, N52F, D54Q
Vbeta: B1 Vbeta with Q29E, S54D, K55Q, S101Q, Y104W

EC50 Value (M), JKR9 reporter activation by peptide-loaded T2 cells [3]: 2.74e-08 M | EC50 of peptide [4]: 27.4 nM
B16: A1A2-M01-619 (TCR, V domains shown)
Valpha: B1 Valpha with S29M, N52F
Vbeta: B1 Vbeta with Q29E, S50T, N51D, E52Y, S101Q

EC50 Enhancement Factor [1]: 165 | EC50 Value (M), JKR9 reporter activation by peptide-loaded T2 cells [1]: 1.01e-07 M | EC50 of peptide [2]: 101 nM
B17: ht27M1365 (TCR, V domains shown)
Valpha: B1 Valpha with N52F, M53T, D54Y
Vbeta: B1 Vbeta with S101Q

EC50 Value (M), JKR9 reporter activation by peptide-loaded T2 cells [3]: 1.76e-08 M | EC50 of peptide [4]: 17.6 nM | EC50 [5]: 0.0911 nM | Kd [6]: 0.028 nM | EC50 of Dextramer staining [7]: 0.0911 nM | Kd [8]: ~0.028 nM
B18: A1A2-M01-622 (TCR, V domains shown)
Valpha: B1 Valpha with S51A, N52F, M53E, D54S
Vbeta: B1 Vbeta with Q29E, S50T, N51D, E52Y, S101Q, Y104W

EC50 Value (M), JKR9 reporter activation by peptide-loaded T2 cells [3]: 2.59e-08 M | EC50 of peptide [4]: 25.9 nM | EC50 [5]: 0.116 nM | Kd [6]: 0.0651 nM | EC50 of Dextramer staining [7]: 0.116 nM | Kd [8]: ~0.0651 nM
B19: A1A2-M01-624 (TCR, V domains shown)
Valpha: B1 Valpha with T25Q, D26Y, S27G, S28M, N52F
Vbeta: B1 Vbeta with Q29E, S50T, N51D, E52Y, S101Q, Y104W

EC50 Value (M), JKR9 reporter activation by peptide-loaded T2 cells [9]: 1.67e-05 M | EC50 Value (M), JKR9 reporter activation by peptide-loaded T2 cells [10]: 2.31e-06 M
B20: ht27WT (TCR, V domains shown)
V domain 1: RGEDVEQSLFLSVREGDSSVINCTYTDSSSTYLYWYKQEPGAGLQLLTYIFSNMDMKQDQRLTVLLNKKDKHLSLRIADTQTGDSAIYFCAGSGGGTDKLIFGTGTRLQVFP
V domain 2: GAVVSQHPSWVICKSGTSVKIECRSLDFQATTMFWYRQFPKQSLMLMATSNEGSKATYEQGVEKDKFLINHASLTLSTLTVTSAHPEDSSFYICSAREPGQGPYEQYFGPGTRLTVTE
